The nature of the data set: yeast display, Sf9 membrane polyspecificity reagent, FACS + sequencing; frameworks hold sequencing errors. The procedure, abridged: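 Genes from sorted yeast were amplified by colony PCR, read by MiSeq 2 × 250 sequencing and filtered on CDR length. These cells carried a synthetic nanobody library in Saccharomyces cerevisiae BJ5465 and were sorted by FACS into low and high (top ~1%) gates on anti-HA and streptavidin fluorescence. Polyreactivity is labelled according to the gate of origin.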
On to “QVQLVESGGGLVQAGGSLRLSCAASGRTFKYYAMGWYRQAPGKERELVAAISRSGGSTYYADSVKGRFTISRDNAKNTVYLQMNSLKPEDTAVYYCNAEYLWIRHIAEDYWGQGTQVTVSS”, for which the “polyreactivity (PSR sort gate)” value is recorded as “low polyreactivity”. In the case of “QVQLVESGGGLVQAGGSLRLSCAASGRTFKYYAMGWYRQAPGKERELVAAITTGGSTHYADSVKGRFTISRDNAKNTVYLQMNSLKPEDTAVYYCAAGPFARYDYWGQGTEVTVSS”, the “polyreactivity (PSR sort gate)” value is given as “low polyreactivity”. In the case of “QVQLVESGGGLVQAGGSLRLSCAASGRTFKYYTMGWYRQAPGKERELVAAISGGGGITNYADSVKGRFTISRDNAKNTVYLQMNSQKPEDTAVYYCYARYNSWRYLAQYNYWGQGTQVTVSS” it was “high polyreactivity”; in that of “QVQLVESGGGLVQAGGSLRLSCAASGRTFLGYAMGWYRQAPGKERELVAAINRSGGRTYYADSVKGRFTISRDNAKNTVYLQMNSMKQEDTSVYYCAAYTSYSAYDYWGQGTQVTVSS”, “high polyreactivity”.

As to “QVQLVESGGGLVQAGGSLRLSCAASGRTFLGYAMGWYRQAPGKERELVAAISYSGSSTYYADSVKGRFTITRDNAKITVYLQMNSLKPEDTAVYYCAAQFFFLFDYWGQGTQVTLSS”, the “polyreactivity (PSR sort gate)” value is on record as “low polyreactivity”. In the case of “QVQLVESGGGLVQAGGSLRLSCAASGRTFLINAMGWYRQAPGKERELVAAITQSGGSTYYADSVKGRFTISRDNAKNTVYLQMNSLKPEDTAVYYCNAQSWYIVPYDYWGQGTQVTVSS” it was “low polyreactivity”; in that of “QVQLVESGGGLVQAGGSLRLSCAASGRTFLLNAMGWYRQAPGKERELVAAMTRSGVITYYADSVKGRFTISRDNAKNTVYLQMNSLKPEDTAVYYCAARRDARSTEYGYWGQGTQVTVSS”, “high polyreactivity”; in that of “QVQLVESGGGLVQAGGSLRLSCAASGRTFLLNAMGWYRQAPGKERELVATITYSGGITYYADSVKGRFTISRDNAKNTVYLQMNSLKPEDTAVYYCSTSGPQYYSRNFDYWGQGTQVTVSS”, “low polyreactivity”. For “QVQLVESGGGLVQAGGSLRLSCAASGRTFLLYAMGWYRPAPGKERELVAAIRSSTVSTYYADSVKGRFTISRDNAKNTVYLQMNSLKPEDTAVYYCAASRPKYGPSGVRYNYWGQGTQVTVSS” the value was “high polyreactivity”; for “QVQLVESGGGLVQAGGSLRLSCAASGRTFLNYPMGWYRPAPGKERELVASISSSGARTYYADSVKGRFTISRDNAKNTVYLQMNSLKPEDTAVYFCAVTAGRGGYPQGGVTRGYWGQGTQVTVSS”, “high polyreactivity”.

Regarding “QVQLVESGGGLVQAGGSLRLSCAASGRTFLPNAMGWYRQAPGKERELVAAINWRGASTYYADSVKGRFTISRDNAKNTVYLQMNSLKPEDTAVYYCAVDSHYQSYYYRRYDYWGQGTQVTVSS”, the “polyreactivity (PSR sort gate)” value is given as “low polyreactivity”.

Regarding “QVQLVESGGGLVQAGGSLRLSCAASGRTFLPNPMGWYRQAPGKERELVAVITSGGSTNYADSVKGRFTISRDNAKNTVYLQMNSLKPEDTAVYYCAADRYSYFYIGYDYWGQGTQVTVSS”, the “polyreactivity (PSR sort gate)” value is reported as “low polyreactivity”. For “QVQLVESGGGLVQAGGSLRLSCAASGRTFLPYAMGWYRQAPGKERELVADINWGGGSTYYADSVKGRFTISRDNATNTVYLQMNSLKQEDTALYYCATDDGYQYWYYQWYYWGQGTQVTVSS” the value was “low polyreactivity”; for “QVQLVESGGGLVQAGGSLRLSCAASGRTFLRNAMRWYRQAPGKERELVATISIGGRTYYADSVKGRFTISRDNAKNTVYLQMNSLKPEDTAVYYCNASTSILSLDWEYGSWGQGTQVTVSS”, “low polyreactivity”; for “QVQLVESGGGLVQAGGSLRLSCAASGRTFLRYAMGWYRQAPGKERELVAAISVSGGNTYYADSVKGRFTISRDNAKNTVYLQMNSLKPEDTAVYYCNKARLAAVFSYPYGYWGQVTQVTVSS”, “low polyreactivity”. As to “QVQLVESGGGLVQAGGSLRLSCAASGRTFLRYAMGWYRQAPGTERELVAAISWSGGRTYYADSVKGRFTISRDNAKNTVYLQMNSLKPEDTAVYYCNKVVLYGAHYYYWGQGTQVTVSS”, the “polyreactivity (PSR sort gate)” value is on record as “high polyreactivity”. For “QVQLVESGGGLVQAGGSLRLSCAASGRTFLSYMGWYRQAPGKERELVAISRSGTSTYYADSVKGRFTISRDNAKNTVYLQMNSLKPEDTAVYYCAAETNTWYLFDYWGQGTQVTVSS” the value was “high polyreactivity”; for “QVQLVESGGGLVQAGGSLRLSCAASGRTFLTNAMGWYRQAPGKERELVAAIRWSGTSTYYADSVKGRFTISRDNAKNTVYLQMNSLKPEDTAVYYCAARKVYGSKYGYWGQGTQVTVSS”, “high polyreactivity”.

As for “QVQLVESGGGLVQAGGSLRLSCAASGRTFLTNAMGWYRQAPGKERELVAAISSGASTNYADSVKGRFTISRDNAKNTVYLQMNSLKPEDTAVYYCAAQLTDYQSKTLSYDYWGQGTQVTVSS”, the “polyreactivity (PSR sort gate)” value is “low polyreactivity”. For “QVQLVESGGGLVQAGGSLRLSCAASGRTFLTYAMGWYRQAPGKERELVAAISKRGGSTYYADSVKGRFTISRDNAKNTVYLQMNSLKPEDTAVYFCAADNGNHYGFWGQGTQVTVSS” the value was “high polyreactivity”; for “QVQLVESGGGLVQAGGSLRLSCAASGRTFLVYAMGWYRQAPGKERELVAAITWTGGTTYYADSVKGRFTISRDNAKNTVYLQMNSLKPEDTAVYYCNKRGSAWLVEEVDYWGQGTQVTVSS”, “low polyreactivity”. In the case of “QVQLVESGGGLVQAGGSLRLSCAASGRTFLVYAMGWYRQPPGTERELVAAITSGGSTYYADSVKGRFTISRDNAKNTVYLQMNSLKPEDTAVYYCAAKIRGYPRRRYDYWGQGTQVTVSS” it was “high polyreactivity”. For “QVQLVESGGGLVQAGGSLRLSCAASGRTFLYNAMGWYRQAPGKERELVAAISGRGGRTYYADSVKGRFTISRDNAKNTVYLQMNSLKPEDTAVYYCAASQYYRWVIGYDFEYDYWGQGTQVTVSS” the value was “high polyreactivity”; for “QVQLVESGGGLVQAGGSLRLSCAASGRTFLYNTRGWYRQAPGKERELVATITGSGASTYYADSVKGRFTISRDNAKNTVYLQMNSLKPEDTAVYYCATDNVYAYDYWGQGTQLTVSS”, “high polyreactivity”; for “QVQLVESGGGLVQAGGSLRLSCAASGRTFLYSTMGWYRQAPGKERELVAAISKSVGRTYYADSVKGRFTISRDNAKNTVYLQMNSLKPEDTAVYYCAKRWYAGAQHGFDYLGQGTQVTVSS”, “low polyreactivity”. With “QVQLVESGGGLVQAGGSLRLSCAASGRTFLYYAMGWESQGPGKERELVAAITGRGGSTYSADSVKGRFTISRDNAKNTVYLQMNILKPEDTAVYYCAARDNWIRRDGYWGQGTQVTVSS”, the “polyreactivity (PSR sort gate)” value was “high polyreactivity”. In the case of “QVQLVESGGGLVQAGGSLRLSCAASGRTFLYYTMGWYRQAPGKERELVAAINWSGGRTYYADSVKGRFTISRDNAKNTVYLQMNSLKPEDTAVYYCNADSRYRYDYWGQGTQVTVSS” it was “low polyreactivity”. For “QVQLVESGGGLVQAGGSLRLSCAASGRTFNGYALGGYRQAPGKERELVAAICSSGGSTYYADSVKGRFTISRDNAKNTVYLQMNSLKPEDTAVYYCAARRANGFNYWGQGTQVTVSS” the value was “high polyreactivity”. For “QVQLVESGGGLVQAGGSLRLSCAASGRTFNGYAMGWYRQAPGKERELVAAISSSGSTNYADSVKGRFTISRDNAKNTVYLQMNSLKPEDTAVYYCAAEYYAYESVEYDYWGQGTQVTVSS” the value was “low polyreactivity”; for “QVQLVESGGGLVQAGGSLRLSCAASGRTFNHYAMGWYSQAPGKVRELVAGITISGGSTYYADSVKGRFTISRDNAKNTVYLQMNSLKPEDTPVYYCKAVYEYYRQSKGNMDYWGQGTQGTVSS”, “low polyreactivity”; for “QVQLVESGGGLVQAGGSLRLSCAASGRTFNLYAMVWSRQAPGKERELVAAISLSGGRTYYADSVKGRITISRDNAKNTVFLQMNRLNPEDTAVYYCNTDTSRRAVQYDYWGQGTQVSVSS”, “high polyreactivity”. In the case of “QVQLVESGGGLVQAGGSLRLSCAASGRTFNPYAMGWYRQAPGKERELVAVISYIGGSTYADSVKGRFTISRDNEKNTVYLQMNSLKPEDTAVYYCNRATFGQWGCDYWGQGTQVTVSS”, the “polyreactivity (PSR sort gate)” value is reported as “high polyreactivity”. Turning to “QVQLVESGGGLVQAGGSLRLSCAASGRTFNPYSLGWYRQAPGIVRELVAAISYRGGSTYNADSVKGRFTISRDNAKNTVYLQLNSLKPEDTAVYYCAKRGYASGSKWDYGYWGQGTQVTVSS”, the “polyreactivity (PSR sort gate)” value is on record as “high polyreactivity”. For “QVQLVESGGGLVQAGGSLRLSCAASGRTFNRYGMGWYRQAPGKERELVASITSGGSTNYADSVKGRFTISRDNAKNTVYLQMNSLKPEDTAVYYCAKRSIGRYPRTYDYWGQGTQVTVSS” the value was “low polyreactivity”; for “QVQLVESGGGLVQAGGSLRLSCAASGRTFNSNAMGWYRQAPGKERELVAAISGSGGSTYYADSVKGRFTISRDNAKNTVYLQMNSLKPEDTAVYYCAAAARQWKKYDYWGQGTQVTVSS”, “high polyreactivity”.

Turning to “QVQLVESGGGLVQAGGSLRLSCAASGRTFNSYAMGWYRQAPGKEWELVASISSGGSTYYADSVKGRFTLSRDNAKNTDYLQMNSLKPEDTAVYYCAAKSVAYYSYFRRDYWGQGTQVTVSS”, the “polyreactivity (PSR sort gate)” value is “low polyreactivity”. On to “QVQLVESGGGLVQAGGSLRLSCAASGRTFNTYAMGWYSQAPGKERELVAAISRRGGSTYYADSVKGRFTISRDNAKNTDYLQMNSLKPEDTAVYYCAAGNSVGLGWGQGTQVTVSS”, for which the “polyreactivity (PSR sort gate)” value is “high polyreactivity”. In the case of “QVQLVESGGGLVQAGGSLRLSCAASGRTFNWNALGWYRQAPGKERELVATISRRGGSTYYADSVKGRFTISRDNAKNTVYLQMNSLKREDTAVYYCITAGRYGYDYWGQGTQVTVSS” it was “high polyreactivity”; in that of “QVQLVESGGGLVQAGGSLRLSCAASGRTFNWYAMGWYRQAPGKERELVAAIRVNGGITYYADSVKGRFTISRDNAMNTVYLQMNSLKPEDTAVYYCAVYSRQGLGYWGQGTQVTVSS”, “high polyreactivity”; in that of “QVQLVESGGGLVQAGGSLRLSCAASGRTFNYYAMGSYRQAPGKERELVAAISWSGTPTYYADSVKGRFTISRDNAKNTVYLQMNSLKPEDTAVYYCAAHSGSTYKYWGQGTQVTVSS”, “low polyreactivity”. In the case of “QVQLVESGGGLVQAGGSLRLSCAASGRTFNYYAMGWYRQAPGKERELVAAISASGGRTYYADSVKGRFTISRDNAKNTVYLQMNSLKPAETAVYYCAKVSSFDAQFDYWGQGTQVTVSS” it was “high polyreactivity”.

Values taken from the nanobody polyreactivity screen of Harvey et al. (2022).
